The assay has as its target T1, TNFR1 (Homo sapiens, UniProt P19438).
T1 chain: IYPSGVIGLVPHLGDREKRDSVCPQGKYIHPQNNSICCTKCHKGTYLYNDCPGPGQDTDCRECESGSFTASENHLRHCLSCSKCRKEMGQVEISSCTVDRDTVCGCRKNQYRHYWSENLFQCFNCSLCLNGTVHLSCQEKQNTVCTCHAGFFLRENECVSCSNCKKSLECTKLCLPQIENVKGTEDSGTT
Nature of the assay: yeast display SC50.

B1: E72G (designed binder)
chain: SMEEEVEKAAKEYEKKKKEAIEKHLEKLKAKDKEAAERFLKELEEAAKEYAKDEAKTMSEEEAKRRAKKYKGKVLLSELSEEEQKEIKEAEEKLVRTILKYVEEAAK
Turning to B1, the “apparent Kd (screen)” value came out at 1.54 nM.

B2: L75C (designed binder)
chain: SMEEEVEKAAKEYEKKKKEAIEKHLEKLKAKDKEAAERFLKELEEAAKEYAKDEAKTMSEEEAKRRAKKYKEKVCLSELSEEEQKEIKEAEEKLVRTILKYVEEAAK
In the case of B2, the “apparent Kd (screen)” value turned out to be 0.49 nM.

B3: A36G (designed binder)
chain: SMEEEVEKAAKEYEKKKKEAIEKHLEKLKAKDKEAGERFLKELEEAAKEYAKDEAKTMSEEEAKRRAKKYKEKVLLSELSEEEQKEIKEAEEKLVRTILKYVEEAAK
In the case of B3, the “apparent Kd (screen)” value was found to be 0.446 nM.

B4: L43G (designed binder)
chain: SMEEEVEKAAKEYEKKKKEAIEKHLEKLKAKDKEAAERFLKEGEEAAKEYAKDEAKTMSEEEAKRRAKKYKEKVLLSELSEEEQKEIKEAEEKLVRTILKYVEEAAK
With B4, the “apparent Kd (screen)” value worked out at 1.4 nM.

B5: D53C (designed binder)
chain: SMEEEVEKAAKEYEKKKKEAIEKHLEKLKAKDKEAAERFLKELEEAAKEYAKCEAKTMSEEEAKRRAKKYKEKVLLSELSEEEQKEIKEAEEKLVRTILKYVEEAAK
Turning to B5, the “apparent Kd (screen)” value turned out to be 2.73 nM.

B6: K48N (designed binder)
chain: SMEEEVEKAAKEYEKKKKEAIEKHLEKLKAKDKEAAERFLKELEEAANEYAKDEAKTMSEEEAKRRAKKYKEKVLLSELSEEEQKEIKEAEEKLVRTILKYVEEAAK
Turning to B6, the “apparent Kd (screen)” value turned out to be 0.49 nM.

B7: A30H (designed binder)
chain: SMEEEVEKAAKEYEKKKKEAIEKHLEKLKHKDKEAAERFLKELEEAAKEYAKDEAKTMSEEEAKRRAKKYKEKVLLSELSEEEQKEIKEAEEKLVRTILKYVEEAAK
Take B7: the “apparent Kd (screen)” value was determined as 0.869 nM.

B8: A10K (designed binder)
chain: SMEEEVEKAKKEYEKKKKEAIEKHLEKLKAKDKEAAERFLKELEEAAKEYAKDEAKTMSEEEAKRRAKKYKEKVLLSELSEEEQKEIKEAEEKLVRTILKYVEEAAK
As to B8, the “apparent Kd (screen)” value was 0.49 nM.

B9: A47Y (designed binder)
chain: SMEEEVEKAAKEYEKKKKEAIEKHLEKLKAKDKEAAERFLKELEEAYKEYAKDEAKTMSEEEAKRRAKKYKEKVLLSELSEEEQKEIKEAEEKLVRTILKYVEEAAK
B9: the “apparent Kd (screen)” value was found to be 0.49 nM.

B10: E86K (designed binder)
chain: SMEEEVEKAAKEYEKKKKEAIEKHLEKLKAKDKEAAERFLKELEEAAKEYAKDEAKTMSEEEAKRRAKKYKEKVLLSELSEEEQKKIKEAEEKLVRTILKYVEEAAK
Regarding B10, the “apparent Kd (screen)” value was 0.593 nM.

B11: K27A (designed binder)
chain: SMEEEVEKAAKEYEKKKKEAIEKHLEALKAKDKEAAERFLKELEEAAKEYAKDEAKTMSEEEAKRRAKKYKEKVLLSELSEEEQKEIKEAEEKLVRTILKYVEEAAK
Consider B11, for which the “apparent Kd (screen)” value was 0.79 nM.

B12: E103P (designed binder)
chain: SMEEEVEKAAKEYEKKKKEAIEKHLEKLKAKDKEAAERFLKELEEAAKEYAKDEAKTMSEEEAKRRAKKYKEKVLLSELSEEEQKEIKEAEEKLVRTILKYVPEAAK
On to B12, for which the “apparent Kd (screen)” value came to 0.49 nM.

B13: K85A (designed binder)
chain: SMEEEVEKAAKEYEKKKKEAIEKHLEKLKAKDKEAAERFLKELEEAAKEYAKDEAKTMSEEEAKRRAKKYKEKVLLSELSEEEQAEIKEAEEKLVRTILKYVEEAAK
Take B13: the “apparent Kd (screen)” value was determined as 0.539 nM.

B14: E62N (designed binder)
chain: SMEEEVEKAAKEYEKKKKEAIEKHLEKLKAKDKEAAERFLKELEEAAKEYAKDEAKTMSEENAKRRAKKYKEKVLLSELSEEEQKEIKEAEEKLVRTILKYVEEAAK
Turning to B14, the “apparent Kd (screen)” value turned out to be 0.49 nM.

B15: E86A (designed binder)
chain: SMEEEVEKAAKEYEKKKKEAIEKHLEKLKAKDKEAAERFLKELEEAAKEYAKDEAKTMSEEEAKRRAKKYKEKVLLSELSEEEQKAIKEAEEKLVRTILKYVEEAAK
As to B15, the “apparent Kd (screen)” value came out at 0.653 nM.

B16: A46E (designed binder)
chain: SMEEEVEKAAKEYEKKKKEAIEKHLEKLKAKDKEAAERFLKELEEEAKEYAKDEAKTMSEEEAKRRAKKYKEKVLLSELSEEEQKEIKEAEEKLVRTILKYVEEAAK
In the case of B16, the “apparent Kd (screen)” value is 5.84 nM.

B17: T97A (designed binder)
chain: SMEEEVEKAAKEYEKKKKEAIEKHLEKLKAKDKEAAERFLKELEEAAKEYAKDEAKTMSEEEAKRRAKKYKEKVLLSELSEEEQKEIKEAEEKLVRAILKYVEEAAK
As for B17, the “apparent Kd (screen)” value stood at 1.86 nM.

B18: D53N (designed binder)
chain: SMEEEVEKAAKEYEKKKKEAIEKHLEKLKAKDKEAAERFLKELEEAAKEYAKNEAKTMSEEEAKRRAKKYKEKVLLSELSEEEQKEIKEAEEKLVRTILKYVEEAAK
As for B18, the “apparent Kd (screen)” value turned out to be 0.79 nM.

B19: A46I (designed binder)
chain: SMEEEVEKAAKEYEKKKKEAIEKHLEKLKAKDKEAAERFLKELEEIAKEYAKDEAKTMSEEEAKRRAKKYKEKVLLSELSEEEQKEIKEAEEKLVRTILKYVEEAAK
Take B19: the “apparent Kd (screen)” value was found to be 3 nM.

B20: E89A (designed binder)
chain: SMEEEVEKAAKEYEKKKKEAIEKHLEKLKAKDKEAAERFLKELEEAAKEYAKDEAKTMSEEEAKRRAKKYKEKVLLSELSEEEQKEIKAAEEKLVRTILKYVEEAAK
As to B20, the “apparent Kd (screen)” value came to 1.4 nM.

B21: K18Y (designed binder)
chain: SMEEEVEKAAKEYEKKKYEAIEKHLEKLKAKDKEAAERFLKELEEAAKEYAKDEAKTMSEEEAKRRAKKYKEKVLLSELSEEEQKEIKEAEEKLVRTILKYVEEAAK
In the case of B21, the “apparent Kd (screen)” value stood at 1.05 nM.

B22: M58D (designed binder)
chain: SMEEEVEKAAKEYEKKKKEAIEKHLEKLKAKDKEAAERFLKELEEAAKEYAKDEAKTDSEEEAKRRAKKYKEKVLLSELSEEEQKEIKEAEEKLVRTILKYVEEAAK
Consider B22, for which the “apparent Kd (screen)” value was found to be 22.2 nM.

B23: E61L (designed binder)
chain: SMEEEVEKAAKEYEKKKKEAIEKHLEKLKAKDKEAAERFLKELEEAAKEYAKDEAKTMSELEAKRRAKKYKEKVLLSELSEEEQKEIKEAEEKLVRTILKYVEEAAK
For B23, the “apparent Kd (screen)” value amounted to 1.69 nM.

B24: E61G (designed binder)
chain: SMEEEVEKAAKEYEKKKKEAIEKHLEKLKAKDKEAAERFLKELEEAAKEYAKDEAKTMSEGEAKRRAKKYKEKVLLSELSEEEQKEIKEAEEKLVRTILKYVEEAAK
Consider B24, for which the “apparent Kd (screen)” value was determined as 1.54 nM.

B25: K100Y (designed binder)
chain: SMEEEVEKAAKEYEKKKKEAIEKHLEKLKAKDKEAAERFLKELEEAAKEYAKDEAKTMSEEEAKRRAKKYKEKVLLSELSEEEQKEIKEAEEKLVRTILYYVEEAAK
For the molecule B25, the “apparent Kd (screen)” value came out at 0.869 nM.

B26: A90H (designed binder)
chain: SMEEEVEKAAKEYEKKKKEAIEKHLEKLKAKDKEAAERFLKELEEAAKEYAKDEAKTMSEEEAKRRAKKYKEKVLLSELSEEEQKEIKEHEEKLVRTILKYVEEAAK
B26: the “apparent Kd (screen)” value came out at 0.446 nM.

B27: E49I (designed binder)
chain: SMEEEVEKAAKEYEKKKKEAIEKHLEKLKAKDKEAAERFLKELEEAAKIYAKDEAKTMSEEEAKRRAKKYKEKVLLSELSEEEQKEIKEAEEKLVRTILKYVEEAAK
In the case of B27, the “apparent Kd (screen)” value is 20.2 nM.

B28: A9L (designed binder)
chain: SMEEEVEKLAKEYEKKKKEAIEKHLEKLKAKDKEAAERFLKELEEAAKEYAKDEAKTMSEEEAKRRAKKYKEKVLLSELSEEEQKEIKEAEEKLVRTILKYVEEAAK
Turning to B28, the “apparent Kd (screen)” value came to 0.956 nM.

B29: A55G (designed binder)
chain: SMEEEVEKAAKEYEKKKKEAIEKHLEKLKAKDKEAAERFLKELEEAAKEYAKDEGKTMSEEEAKRRAKKYKEKVLLSELSEEEQKEIKEAEEKLVRTILKYVEEAAK
For B29, the “apparent Kd (screen)” value turned out to be 8.56 nM.

B30: A47M (designed binder)
chain: SMEEEVEKAAKEYEKKKKEAIEKHLEKLKAKDKEAAERFLKELEEAMKEYAKDEAKTMSEEEAKRRAKKYKEKVLLSELSEEEQKEIKEAEEKLVRTILKYVEEAAK
For the molecule B30, the “apparent Kd (screen)” value turned out to be 0.446 nM.

B31: L43Q (designed binder)
chain: SMEEEVEKAAKEYEKKKKEAIEKHLEKLKAKDKEAAERFLKEQEEAAKEYAKDEAKTMSEEEAKRRAKKYKEKVLLSELSEEEQKEIKEAEEKLVRTILKYVEEAAK
Take B31: the “apparent Kd (screen)” value was determined as 0.446 nM.

B32: E81I (designed binder)
chain: SMEEEVEKAAKEYEKKKKEAIEKHLEKLKAKDKEAAERFLKELEEAAKEYAKDEAKTMSEEEAKRRAKKYKEKVLLSELSIEEQKEIKEAEEKLVRTILKYVEEAAK
Take B32: the “apparent Kd (screen)” value was determined as 0.593 nM.

B33: K23E (designed binder)
chain: SMEEEVEKAAKEYEKKKKEAIEEHLEKLKAKDKEAAERFLKELEEAAKEYAKDEAKTMSEEEAKRRAKKYKEKVLLSELSEEEQKEIKEAEEKLVRTILKYVEEAAK
Consider B33, for which the “apparent Kd (screen)” value turned out to be 0.446 nM.

Values taken from publication PMC12416549 (2024).
